Measured values published in patent US12479895B2, “C-terminal CDNF and MANF fragments, pharmaceutical compositions comprising same and uses thereof” (MyNeuroCure Oy, priority 2018, dated 2025).

Tests used:
ER stressed SCG neurons = assay: Survival of tunicamycin-treated (ER stressed) SCG sympathetic neurons after microinjection; format: cell-based, mice; conditions: for survived neurons as % compared to neurons grown in the presence of NGF: Table 1A (FIG. 14), microinjected into cytoplasm, CDNF (400); for Fold change of survived neurons compared to neurons injected with PBS: data of Table 1 divided by values of PBS
Summary of the method: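 Newborn mouse SCG neurons grown 5-6 days with 30 ng/ml NGF, then microinjected with CDNF (FL or C-terminal) plasmids (10 ng/ul, EGFP reporter) or proteins (200 ng/ul, Dextran Texas Red). Tunicamycin (2 μM) added next day. Fluorescent survivors counted blindly after 3 days as % of initial; compared with vector or PBS (ANOVA/Dunnett).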

[1] = rat, in vivo, sc
Protocol: CDNF, C-CDNF and C-MANF were iodinated with ^125I-Na using the lactoperoxidase method. The protein in question was dissolved in 30 μl of 0.25 M phosphate buffer, pH 7.5, and mixed with ^125I-Na (1 mCi/2.8 μl; 1 mCi=37 mBq; GE Healthcare). The reaction was started by adding lactoperoxidase 10 μl of 50 μg/ml and 0.05% H2O2. The mixture was incubated at room temperature for 20 min and the reaction was stopped by adding 3 volumes of 0.1 M phosphate buffer, pH 7.5, containing 0.1 M NaI, 0.42 M NaCl, and then 25 μl of 2.5% BSA was added. Free iodine and iodinated protein were separated by gel filtration on Sephadex G-25 columns (PM10; GE Healthcare). For column equilibrium and elution, 0.1 M phosphate buffer, pH 7.5, with 1% BSA was used. The iodinated growth factors were sometimes concentrated by using YM-10 Centricon columns (Millipore). The specific activity of ^125I-labeled CDNF, C-CDNF and C-MANF was measured on the Wizard 3 1480 Automatic Gamma Counter (Perkin Elmer, Wallac) and was about 10^8 cpm/μg protein. The labelled protein were kept at 4° C. and used within 3 weeks after labelling.
^125I-CDNF, ^125I C-CDNF or ^125I C-MANF (all proteins at 10^6 cpm in 10 μl) were injected subcutaneously to adult male Wistar rats. […] Radioactivity was analyzed in different brain regions by gamma counter. […] The differences between groups were analyzed ANOVA followed by Tukey-Kramers post hoc test.

rat 6-OHDA model of PD = assay: Neurorestoration study in 6-OHDA model of PD in rats; format: in vivo; conditions: injected intrastriatally 2 weeks after 6-OHDA lesioning; rotations at 2, 4, 6 and 8 weeks post-lesion
dopamine neurons = assay: Survival of TH-positive dopamine neurons in dissociated midbrain floor cultures; format: cell-based, mouse; conditions: for survived neurons as % compared to neurons grown in the presence of GDNF: Table 3A (FIG. 15); for survived neurons as % compared to neurons grown in the presence of GDNF / protection of dopaminergic neurons in culture (result in words): 5 days; for Fold change of survived neurons compared to neurons grown without growth factors: data of Table 3 divided by values of no factor; for protection of dopaminergic neurons in culture (result in words): added to the culture medium, TH-positive neurons counted
Summary of the method: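 Dissociated E13.5 NMRI mouse midbrain floor neurons grown five days in DMEM/F12 with N2, with polypeptides at a range of concentrations, GDNF (100 ng/ml), or nothing. TH-immunopositive neurons were counted by imaging. Values are a percentage of GDNF-maintained TH-positive neurons, as mean ± SEM from at least three independent cultures.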

B1: KYEKTLDLASVDLRKMRVAELKQILHSWGEECRACAEKTDYVNLIQELAPKYAATHPKTEL (peptide, listed as Homo sapiens)
chain: KYEKTLDLASVDLRKMRVAELKQILHSWGEECRACAEKTDYVNLIQELAPKYAATHPKTEL
survived neurons as % compared to neurons grown in the presence of NGF (ER stressed SCG neurons; AVG of exp1-2, tunicamycin 2 μM): 84.37 % NGF | survived neurons as % compared to neurons grown in the presence of NGF (ER stressed SCG neurons; exp1, tunicamycin 2 μM, counted after 3 days): 78.87 % NGF | survived neurons as % compared to neurons grown in the presence of NGF (ER stressed SCG neurons; exp2, tunicamycin 2 μM, counted after 3 days): 89.87 % NGF | Fold change of survived neurons compared to neurons injected with PBS (ER stressed SCG neurons; Table 2, AVG): 2.28 Fold to PBS | Fold change of survived neurons compared to neurons injected with PBS (ER stressed SCG neurons; Table 2, exp1): 2.30 Fold to PBS | Fold change of survived neurons compared to neurons injected with PBS (ER stressed SCG neurons; Table 2, exp2): 2.26 Fold to PBS | rescue of ER stressed SCG sympathetic neurons (result in words) (ER stressed SCG neurons; expressed from microinjected plasmids, tunicamycin 2 μM, living fluorescent neurons counted after three days): rescue | rescue of ER stressed SCG neurons (result in words) (ER stressed SCG neurons; protein or peptide microinjected into the cytoplasm, tunicamycin 2 μM, living fluorescent neurons counted after 3 days): rescue | blood-brain-barrier penetration [1]: capable of penetrating | cumulative amount of amphetamine-induced rotations (rat 6-OHDA model of PD): significantly reduces | survived neurons as % compared to neurons grown in the presence of GDNF (dopamine neurons; AVG, 1 ng/ml): 63.97 % GDNF | survived neurons as % compared to neurons grown in the presence of GDNF (dopamine neurons; AVG, 10 ng/ml): 80.69 % GDNF | survived neurons as % compared to neurons grown in the presence of GDNF (dopamine neurons; AVG, 100 ng/ml): 77.02 % GDNF | survived neurons as % compared to neurons grown in the presence of GDNF (dopamine neurons; AVG, 1000 ng/ml): 70.02 % GDNF | survived neurons as % compared to neurons grown in the presence of GDNF (dopamine neurons; exp1, 1 ng/ml): 62.96 % GDNF | survived neurons as % compared to neurons grown in the presence of GDNF (dopamine neurons; exp1, 10 ng/ml): 81.68 % GDNF | survived neurons as % compared to neurons grown in the presence of GDNF (dopamine neurons; exp1, 100 ng/ml): 91.48 % GDNF | survived neurons as % compared to neurons grown in the presence of GDNF (dopamine neurons; exp1, 1000 ng/ml): 75.02 % GDNF | survived neurons as % compared to neurons grown in the presence of GDNF (dopamine neurons; exp2, 1 ng/ml): 67.36 % GDNF | survived neurons as % compared to neurons grown in the presence of GDNF (dopamine neurons; exp2, 10 ng/ml): 80.97 % GDNF | survived neurons as % compared to neurons grown in the presence of GDNF (dopamine neurons; exp2, 100 ng/ml): 65.28 % GDNF | survived neurons as % compared to neurons grown in the presence of GDNF (dopamine neurons; exp2, 1000 ng/ml): 61.07 % GDNF | survived neurons as % compared to neurons grown in the presence of GDNF (dopamine neurons; exp3, 1 ng/ml): 61.59 % GDNF | survived neurons as % compared to neurons grown in the presence of GDNF (dopamine neurons; exp3, 10 ng/ml): 79.42 % GDNF | survived neurons as % compared to neurons grown in the presence of GDNF (dopamine neurons; exp3, 100 ng/ml): 74.30 % GDNF | survived neurons as % compared to neurons grown in the presence of GDNF (dopamine neurons; exp3, 1000 ng/ml): 73.98 % GDNF | Fold change of survived neurons compared to neurons grown without growth factors (dopamine neurons; Table 4, AVG, 1 ng/ml): 1.04 fold | Fold change of survived neurons compared to neurons grown without growth factors (dopamine neurons; Table 4, AVG, 10 ng/ml): 1.31 fold | Fold change of survived neurons compared to neurons grown without growth factors (dopamine neurons; Table 4, AVG, 100 ng/ml): 1.26 fold | Fold change of survived neurons compared to neurons grown without growth factors (dopamine neurons; Table 4, AVG, 1000 ng/ml): 1.14 fold | Fold change of survived neurons compared to neurons grown without growth factors (dopamine neurons; Table 4, exp1, 1 ng/ml): 1.10 fold | Fold change of survived neurons compared to neurons grown without growth factors (dopamine neurons; Table 4, exp1, 10 ng/ml): 1.43 fold | Fold change of survived neurons compared to neurons grown without growth factors (dopamine neurons; Table 4, exp1, 100 ng/ml): 1.60 fold | Fold change of survived neurons compared to neurons grown without growth factors (dopamine neurons; Table 4, exp1, 1000 ng/ml): 1.31 fold | Fold change of survived neurons compared to neurons grown without growth factors (dopamine neurons; Table 4, exp2, 1 ng/ml): 1.07 fold | Fold change of survived neurons compared to neurons grown without growth factors (dopamine neurons; Table 4, exp2, 10 ng/ml): 1.28 fold | Fold change of survived neurons compared to neurons grown without growth factors (dopamine neurons; Table 4, exp2, 100 ng/ml): 1.04 fold | Fold change of survived neurons compared to neurons grown without growth factors (dopamine neurons; Table 4, exp2, 1000 ng/ml): 0.97 fold | Fold change of survived neurons compared to neurons grown without growth factors (dopamine neurons; Table 4, exp3, 1 ng/ml): 0.95 fold | Fold change of survived neurons compared to neurons grown without growth factors (dopamine neurons; Table 4, exp3, 10 ng/ml): 1.23 fold | Fold change of survived neurons compared to neurons grown without growth factors (dopamine neurons; Table 4, exp3, 100 ng/ml): 1.15 fold | Fold change of survived neurons compared to neurons grown without growth factors (dopamine neurons; Table 4, exp3, 1000 ng/ml): 1.14 fold | protection of dopaminergic neurons in culture (result in words) (dopamine neurons): protects | protection of dopaminergic neurons in culture (result in words) (dopamine neurons; listed as C-terminal CDNF fragment): potently protected
